Data from PMC2100146, “The Inhibition of Polo Kinase by Matrimony Maintains G2 Arrest in the Meiotic Cell Cycle” (PLoS Biology, 2007).

Target: T1, C-terminally 3x FLAG-tagged Mtrm (Drosophila melanogaster, UniProt Q23973 1-217)
T1 construct: Matrimony (Mtrm), Drosophila melanogaster, 217 amino acids; Phosphorylation detected by MS on T40, S48, S52, S124 and S137; also called Mtrm-FLAG(3x); mtrm-Flag(3x); source: UASP-mtrm-Flag(3x) expressed in ovaries under the nanos-GAL4 driver in a wild-type background, in ovary extract; not shown: 3x FLAG, C-terminal, kept
T1 sequence (looked up): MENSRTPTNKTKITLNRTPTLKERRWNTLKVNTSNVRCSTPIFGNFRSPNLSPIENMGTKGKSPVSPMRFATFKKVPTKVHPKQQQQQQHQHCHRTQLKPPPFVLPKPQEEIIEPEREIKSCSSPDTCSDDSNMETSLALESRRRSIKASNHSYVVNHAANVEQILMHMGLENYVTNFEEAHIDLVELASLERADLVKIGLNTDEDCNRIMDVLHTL
Assay: affinity purification with mass spectrometry; anti-FLAG beads, ovary extracts expressing Mtrm-3x FLAG, eluted with 3x FLAG peptide; MudPIT; three independent purifications against five control FLAG immunoprecipitations from w1118; ratio of NSAF values
Conditions: partners not purified

B1: Polo kinase (Polo) (enzyme, UniProt P52304 1-576, looked up)
chain: MAAKPEDKSTDIPDRLVDINQRKTYKRMRFFGKGGFAKCYEIIDVETDDVFAGKIVSKKLMIKHNQKEKTAQEITIHRSLNHPNIVKFHNYFEDSQNIYIVLELCKKRSMMELHKRRKSITEFECRYYIYQIIQGVKYLHDNRIIHRDLKLGNLFLNDLLHVKIGDFGLATRIEYEGERKKTLCGTPNYIAPEILTKKGHSFEVDIWSIGCVMYTLLVGQPPFETKTLKDTYSKIKKCEYRVPSYLRKPAADMVIAMLQPNPESRPAIGQLLNFEFLKGSKVPMFLPSSCLTMAPRIGSNDTIEDSMHRKPLMEMNGIRPDDTRLESTFLKANLHDAITASAQVCRHSEDYRSDIESLYQQLTNLINGKPRILQGNLGDENTDPAAQPLFWISKWVDYSDKYGFGYQLCDEGIGVMFNDTTKLILLPNQINVHFIDKDGKETYMTTTDYCKSLDKKMKLLSYFKRYMIEHLVKAGANNVNIESDQISRMPHLHSWFRTTCAVVMHLTNGSVQLNFSDHMKLILCPRMSAITYMDQEKNFRTYRFSTIVENGVSKDLYQKIRYAQEKLRKMLEKMFT
notes: Polo kinase, Drosophila melanogaster; endogenous protein of ovaries; Polo recovered with Mtrm-3xFLAG was found phosphorylated on T182 at over 80% in all three purifications; source: endogenous, Drosophila ovary extract
- stoichiometry N: 0.96 ± 0.11
